Measurements published in patent US20250002576A1.

Target: human Claudin 18.2 (human) (UniProt P56856)
Assay: flow cytometry, antibody dilution series on hCLDN18.2-expressing MiaPaCa-2 cells

EC50: 7.2 nM
B1: YU577-E08 (antibody, V domains shown)
VH: QVQLVQSGAEVKKPGASVKVSCKASGYTFTSYYMHWVRQAPGQGLEWMGIINPSGGSTSYAQKFQGRVTMTRDTSTSTVYMELSSLRSEDTAVYYCATRQFDYWGQGTLVTVSS
VL: QSVLTQPPSVSAAPGQKVTISCSGSSSNIGNNYVSWYQQLPGTAPKLLIYENNKRPSGIPDRFSGSKSGTSATLGITGLQTGDEADYYCGTWDSSLSAAVFGGGTKVTVL
